Experimental data published in patent US8383797B2, “Luciferase gene optimized for use in imaging of intracellular luminescence” (Toyo Boseki Kabushiki Kaisha, priority 2005, dated 2013).

What was measured:
[1] = tested on: cultured fibroblast NIH3T3 cells; test: Real-time monitoring of luminescence under control of the Bmal1 promoter in living cells; type: cell-based; conditions: PEST-fused luciferase, NIH3T3, 200 μM D-luciferin
Protocol: Short lifespan-type luciferase was made by ligating a PEST sequence (SEQ ID NO: 7) of murine ornithine decarboxylase to a wild-type (SEQ ID NO: 1) and improved-type (SEQ ID NO: 2) click beetle luciferase cDNA. Vectors in which these had been inserted downstream of a murine circadian clock gene Bmal1 promoter (GenBank Accession No. AB064982) were made. Subsequently, 1 μg of each vector was introduced into cultured fibroblast NIH3T3 cells seeded in a 35 mm culture dish by a lipofection method (LipofectAMINE PLUS, Invitrogen), and the cells were cultured at 37° C. for 24 hours and treated with a DMEM medium containing 100 nM dexamethasone for 2 hours. The medium was replaced with a DMEM medium containing 200 μM D-luciferin and 10% (w/v) bovine serum, and then one minute of luminescence was measured every 15 minutes for 5 days in real time using a real-time gene expression measurement apparatus (AB2500 supplied from ATTO Corporation) (FIG. 1A).

[2] = tested on: cultured fibroblast NIH3T3 cells; test: Transient assay of Bmal1 promoter activity, luminescence of cell extract; type: cell-based; conditions: PEST-fused luciferase, NIH3T3, cell lysate, luminometer
Protocol: The aforementioned reporter vector (200 ng) was introduced into the cultured fibroblast NIH3T3 cells seeded in a 24-well plate by the lipofection method, the cells were cultured at 37° C. for 24 hours, and disrupted with 300 μL of a cell lysis agent (cultured cell lysis agent for PicaGene Dual Seapansy supplied from Toyo Ink MFG Co., Ltd.). A luminescent substrate solution (50 μL) (PicaGene luminescence reagent II) was added to a cell extract solution (50 μL), and 20 seconds of luminescence was measured using a luminometer (AB2250 supplied from ATTO Corporation) (FIG. 1B).

[3] = tested on: cultured fibroblast rat1 cells; test: Real-time monitoring of luminescence under control of the Bmal1 promoter in living cells; type: cell-based; conditions: PEST-fused luciferase, luminescence amount integrated within 24 hours
Protocol: Short lifespan-type luciferase was made by ligating the PEST sequence (SEQ ID NO: 7) of murine ornithine decarboxylase to firefly luciferase cDNA (Luc(+), supplied from Promega) derived from Photinus pyralis produced in North America and improved-type click beetle luciferase cDNA (SEQ ID NO: 2). Vectors in which these had been inserted downstream of a murine circadian clock gene Bmal1 promoter (GenBank Accession No. AB064982) were made. Subsequently, 1 μg of each vector was introduced into cultured fibroblast rat1 cells seeded in a 35 mm culture dish by the lipofection method (LipofectAMINE PLUS), and the cells were cultured at 37° C. for 24 hours and treated with the DMEM medium containing 100 nM dexamethasone for 2 hours. The medium was replaced with a DMEM medium containing 200 μM D-luciferin and 10% (w/v) bovine serum, and then one minute of luminescence was measured every 15 minutes for 5 days using the real-time gene expression measurement apparatus (AB2500 supplied from ATTO Corporation) (FIG. 2).

[4] = tested on: cultured fibroblast NIH3T3 cells; test: Bioluminescence imaging of cells expressing FLAG-tagged luciferase; type: cell-based; conditions: CMV promoter, FLAG tag, NIH3T3, 200 μM D-luciferin, CCD camera, three minutes
Protocol: A FLAG tag sequence (MDYDDDDK; SEQ ID NO: 15) was ligated to the N terminus of the firefly luciferase cDNA (Luc(+), supplied from Promega) derived from Photinus pyralis produced in North America and the improved-type click beetle luciferase cDNA (SEQ ID NO: 2). The expression vector (2 μg) obtained by inserting one of them downstream of the CMV promoter was introduced in the cultured fibroblast NIH3T3 cells by the lipofection method, and the cells were cultured at 37° C. for 24 hours. Subsequently, the medium was replaced with a DMEM medium containing 200 μM D-luciferin and 10% (w/v) bovine serum, and three minutes of bioluminescence was measured using a CCD camera (Cellgraph supplied from ATTO Corporation) cooled to −60° C.

HeLa S3 cells = test: Analysis of AP1 response sequence in living cells, 96-well plate; type: cell-based; conditions: HeLa S3, TPA or EGF stimulation, 0.2 mM D-luciferin
Protocol: HeLa S3 cells were seeded at 3×10^4 cells (100 μL) per well in a 96-well white opaque plate, and cultured in Dulbecco's Modified Eagle's Medium DMEM (Nissui Pharmaceutical Co., Ltd.) containing 10% FCS. The following day, 0.2 μg per well of the plasmid pELuc-AP1 or pGL3-AP1 (diluted with 25 μL of DMEM containing no FCS) and 0.5 μL of Lipofectamine 2000 transfection reagent (Invitrogen, diluted with 25 μL of DMEM)) were mixed and added to the cells in the medium replaced with 100 μL of DMEM+0.1% FCS, which was incubated for 24 hours to introduce the gene. The following day, the medium was either not replaced, or replaced with DMEM+0.1% FCS (further containing 0.2 mM D-luciferin) containing 0.01 μM TPA (Sigma), 0.1 μM TPA, 1 μM TPA or 10 ng/mL of EGF, and the cells were incubated for 5 hours. Subsequently, the luminescence was measured using a plate reader 1420 ARVOMX (Perkin Elmer). In the graph for measurement values, readout values were plotted, and in the graph for induction ratios, an expression induction ratio at each concentration calculated when the value in an additive-free condition equaled 1 was plotted.

[5] = pH dependency of luminescence of recombinant luciferase enzyme preparations; type: biochemical; conditions: pH 6.6 to 8.8, relative activity with pH 8.0 set as 100
Protocol: A click beetle-derived luciferase enzyme preparation was acquired as a recombinant body by inserting the luciferase gene PtGRm in the vector pELuc-test (Toyobo Co., Ltd.) into the expression vector for Escherichia coli and expressing it in Escherichia coli. As a firefly luciferase enzyme preparation, QuantiLum Recombinant Luciferase (Promega, described as fLuc in the figure) was used. For each enzyme preparation, a luminescence reagent containing 15 mM MgSO4, 6 mM EDTA, 4 mM Co-enzyme A, 1.2 mM D-luciferin, 6 mM DTT, 0.2% Nonidet P40, 2 mM ATP and 2 μg/mL of the enzyme preparation was prepared. Then, 100 μL of ATP solution at […], 0.2 mM or 1 mM and 100 μL of 100 mM Hepes-NaOH pH 6.6 to 8.8 were mixed, and the luminescence was measured.
A graph of luminescence measurement values and a graph obtained by plotting the relative activity at each pH when the measurement value at pH 8.0 was set as 100 in each luciferase are shown in FIG. 12.

B1: improved-type click beetle luciferase: Pyrearinus termitilluminans click beetle luciferase expressed from the modified gene of SEQ ID NO: 2 (protein)
chain: MEREKNVVYGPEPKHPLGNFTAGEMLYNALHKHSHIPQAILDVMGNESLSYQEFFDTTVKLGQSLQNCGYKMNDVVSICAENNKRFFIPIISAWYIGMVVAPVNEDYIPDELCKVTGISKPILVFTTRKILPKVLEVKDRTNYIKRIIILDSEENLLGCESLHNFMSRYSDNNLQTFKPLHYDPVDQVAAILCSSGTTGLPKGVMQTHRNICVRLTHASDPRVGTQLIPGVSVLAYLPFFHAFGFSINLGYFMVGLRVVMLRRFNQEVFLKAIQDYEVRSVINVPSTILFLSKSPLVDKYDLSTLAELCCGAAPLAKEVAEIAVKRLNLPGIRCGYGLTESTSANIHTLHNEFKSGSLGKVTPYMAAKIIDRNTGEALGPNQVGELCIWGPMVTKGYVNNPQATKEAIDDDGWLHSGDFGYYDEDEYFYIVDRYKELIKYKGYQVAPVELEEILLQHPGIRDVAVVGIPDIEAGELPAGFVVKQPGAQLTAKEVYDFLAQRVSHSKYLRGGVRFVDSIPRNVTGKISRKELREALMEKASKL
modifications: Pyrearinus termitilluminans
luminescence intensity relative to wild-type luciferase [1]: about 100 times
luminescence intensity relative to wild-type luciferase [2]: about 150 times
luminescence intensity relative to firefly luciferase derived from Photinus pyralis [3]: ≥ 15 times
bioluminescence signal of cells compared with firefly luciferase [4]: clearly emit strong signals
luminescence intensity relative to conventional luciferase (HeLa S3 cells): 15 times
variation of luminescence activity due to pH compared with firefly luciferase [5]: variation due to the pH values is smaller
